Source: patent US20220213213A1 (published 2022)

T1: human/mouse 5T4 chimera aa173-420 (human/mouse chimera, UniProt Q13641 32-420)
T1 chain: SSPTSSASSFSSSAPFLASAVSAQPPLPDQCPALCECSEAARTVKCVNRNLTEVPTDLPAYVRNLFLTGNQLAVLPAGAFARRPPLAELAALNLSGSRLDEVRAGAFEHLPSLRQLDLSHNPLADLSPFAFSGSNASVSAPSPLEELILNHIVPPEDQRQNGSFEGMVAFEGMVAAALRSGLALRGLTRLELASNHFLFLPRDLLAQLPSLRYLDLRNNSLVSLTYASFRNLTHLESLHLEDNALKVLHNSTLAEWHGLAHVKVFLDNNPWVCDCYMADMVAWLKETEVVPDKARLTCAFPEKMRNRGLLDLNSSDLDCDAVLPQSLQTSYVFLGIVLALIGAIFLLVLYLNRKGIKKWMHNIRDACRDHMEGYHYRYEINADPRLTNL

T2: 5T4 on the SPR chip (amine-coupled on Biacore; biotinylated on MASS-1) (UniProt Q13641 32-355, limits assumed, biotinylated in the MASS-1 assays)
T2 construct: also called biotinylated 5T4
T2 sequence (looked up): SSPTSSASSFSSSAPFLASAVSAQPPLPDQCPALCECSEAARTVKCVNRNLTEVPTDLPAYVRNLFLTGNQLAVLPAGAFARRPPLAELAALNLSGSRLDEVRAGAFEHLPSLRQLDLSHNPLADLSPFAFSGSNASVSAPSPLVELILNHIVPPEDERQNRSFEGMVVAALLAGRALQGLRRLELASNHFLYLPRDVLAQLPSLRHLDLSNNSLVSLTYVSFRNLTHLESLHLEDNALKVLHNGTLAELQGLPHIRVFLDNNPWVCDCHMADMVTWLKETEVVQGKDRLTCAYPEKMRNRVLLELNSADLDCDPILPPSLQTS

T3: 5T4-Fc (obtained from Peter L. Stern, University of Manchester) (human, UniProt Q13641 32-355)
T3 construct: also called h5T4-Fc; recombinant 5T4; not shown: Fc part not specified
T3 sequence (looked up): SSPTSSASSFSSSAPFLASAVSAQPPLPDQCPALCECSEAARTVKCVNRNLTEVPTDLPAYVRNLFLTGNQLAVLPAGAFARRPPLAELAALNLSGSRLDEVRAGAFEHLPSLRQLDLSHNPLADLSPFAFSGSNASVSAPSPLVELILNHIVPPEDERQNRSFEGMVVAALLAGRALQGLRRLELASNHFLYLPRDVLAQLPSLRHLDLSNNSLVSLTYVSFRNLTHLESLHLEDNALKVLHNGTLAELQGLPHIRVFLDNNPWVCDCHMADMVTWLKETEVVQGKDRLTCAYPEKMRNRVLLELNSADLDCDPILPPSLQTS


Legend:
[1] = target: T1, human/mouse 5T4 chimera aa173-420; assay: flow cytometry, chimera-transfected cells
[2] = target: T2, 5T4 on the SPR chip (amine-coupled on …); assay: SPR Biacore, 5T4 amine-coupled, mAb injected
Experimental: Binding kinetics of the 5T4-specific mAbs have been studied using two different SPR-based platforms, the Biacore 3000 (GE Healthcare) and the MASS-1 platform (Sierra Sensors). Briefly, 5T4 was captured at the sensor chip surface either via direct amine coupling (Biacore platform) or using a streptavidin coated chip and biotinylated 5T4 (MASS-1 platform). The different 5T4-specific mAbs were then injected over the chip in increasing concentrations and the association and dissociation rates studied in real time. A 1:1 Langmuir model was used for curve fitting.

[3] = target: T3, 5T4-Fc (obtained from Peter L. Stern, …); assay: dual ELISA: coated 5T4-Fc, detection with CD137-bio
Experimental: Plates (#655074, Greiner Bio-One GmbH, Germany) were pre-coated with 0.5 μg/ml 5T4-Fc (obtained from Professor Peter Stern, University of Manchester) overnight. CD137-5T4 bsAb were diluted from 8 to 2×10⁻³ μg/ml in 1:4 dilutions and added in duplicates of 50 μl to each well. CD137-bio (Ancell #502-030) was used as detection antibody at 0.5 μg/ml and the binding was detected with Streptavidin-HRP (Pierce #21126). The ELISA was developed with SuperSignal ELISA PICO Chemiluminescent substrate (Thermo Scientific Pierce, Rockford, Ill. USA) during 2-10 minutes and read in an automated microplate based multi-detection reader (FLUOstar OPTIMA, Netherlands).

Row | normalized % positive cells [1] | Kd [2] | koff [2] | EC50 [3] | Binder
1 | -0.01 | 180 pM | 0.00081 s⁻¹ | – | 1212/1213 (antibody, V domains shown) VH: EVQLLESGGGLVQPGGSLRLSCAASGFTFSSYAMSWVRQAPGKGLEWVSYISSYGGYTSYADSVKGRFTISRDNSKNTLYLQMNSLRAEDTAVYYCARYHSGVLDYWGQGTLVTVSS VL: DIQMTQSPSSLSASVGDRVTITCRASQSISSYLNWYQQKPGKAPKLLIYAASSLQSGVPSRFSGSGSGTDFTLTISSLQPEDFATYYCQQYYYHYLLTFGQGTKLEIK
2 | 0.3 | – | – | – | 1206/1207 (antibody, V domains shown) VH: EVQLLESGGGLVQPGGSLRLSCAASGFTFSGSSMSWVRQAPGKGLEWVSSIYYSGSGTYYADSVKGRFTISRDNSKNTLYLQMNSLRAEDTAVYYCARYGRNVHPYNLDYWGQGTLVTVSS VL: DIQMTQSPSSLSASVGDRVTITCRASQSISSYLNWYQQKPGKAPKLLIYAASSLQSGVPSRFSGSGSGTDFTLTISSLQPEDFATYYCQQGYYYLPTFGQGTKLEIK
3 | – | – | – | 1910 pM | 1626-1208 (bispecific antibody) chain 1: not shown chain 2: DIQMTQSPSSLSASVGDRVTITCRASQSISSYLNWYQQKPGKAPKLLIYAASSLQSGVPSRFSGSGSGTDFTLTISSLQPEDFATYYCQQGTGYGPLTFGQGTKLEIKRTVAAPSVFIFPPSDEQLKSGTASVVCLLNNFYPREAKVQWKVDNALQSGNSQESVTEQDSKDSTYSLSSTLTLSKADYEKHKVYACEVTHQGLSSPVTKSFNRGEC
4 | – | – | – | 400 pM | 1626-1210 (bispecific antibody) heavy: not shown light: DIQMTQSPSSLSASVGDRVTITCRASQSISSYLNWYQQKPGKAPKLLIYAASSLQSGVPSRFSGSGSGTDFTLTISSLQPEDFATYYCQQGTGYGPLTFGQGTKLEIKRTVAAPSVFIFPPSDEQLKSGTASVVCLLNNFYPREAKVQWKVDNALQSGNSQESVTEQDSKDSTYSLSSTLTLSKADYEKHKVYACEVTHQGLSSPVTKSFNRGEC
